Here are results for 5 variants from IntAct's records for PubMed 21746902.

B1: t-SNARE VTI1 (Saccharomyces cerevisiae), Q04338 (parent)
chain: MSSLLISYESDFKTTLEQAKASLAEAPSQPLSQRNTTLKHVEQQQDELFDLLDQMDVEVNNSIGDASERATYKAKLREWKKTIQSDIKRPLQSLVDSGDRDRLFGDLNASNIDDDQRQQLLSNHAILQKSGDRLKDASRIANETEGIGSQIMMDLRSQRETLENARQTLFQADSYVDKSIKTLKTMTRRLVANKFISYAIIAVLILLILLVLFSKFK
partner: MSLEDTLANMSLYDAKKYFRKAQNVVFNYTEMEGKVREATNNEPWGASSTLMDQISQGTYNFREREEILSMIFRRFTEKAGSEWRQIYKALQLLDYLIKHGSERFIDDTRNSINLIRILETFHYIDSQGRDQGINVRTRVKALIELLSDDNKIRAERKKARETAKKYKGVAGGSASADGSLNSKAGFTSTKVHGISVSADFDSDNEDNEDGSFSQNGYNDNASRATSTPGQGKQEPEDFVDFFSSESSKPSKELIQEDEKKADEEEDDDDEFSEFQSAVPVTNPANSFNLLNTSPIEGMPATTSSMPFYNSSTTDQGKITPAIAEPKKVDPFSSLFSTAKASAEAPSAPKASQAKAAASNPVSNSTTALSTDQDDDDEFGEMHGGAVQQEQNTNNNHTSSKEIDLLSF
B2: Epsin-3 (Saccharomyces cerevisiae), P47160 (parent)
chain: B1 partner

In one assay the parent is B1. The note with it: with ent3_yeast ENT3, P47160.
As for D96R, the “effect of a mutation on the interaction” value is “disrupting interaction strength”.

As for D46R, the “effect of a mutation on the interaction” value is “disrupting interaction strength”.

For E42R, the “effect of a mutation on the interaction” value is “disrupting interaction strength”.

In the next assay the parent is B2. The following applies: with vti1_yeast VTI1, Q04338.
Regarding R161E, the “effect of a mutation on the interaction” value is given as “disrupting interaction strength”.

For R157E, the “effect of a mutation on the interaction” value is recorded as “disrupting interaction strength”.
